This series addresses T1, ETS1 DNA-binding domain (Ets-1 ΔN280) (Mus musculus (murine), UniProt P27577 281-440, del1-280).
T1 sequence: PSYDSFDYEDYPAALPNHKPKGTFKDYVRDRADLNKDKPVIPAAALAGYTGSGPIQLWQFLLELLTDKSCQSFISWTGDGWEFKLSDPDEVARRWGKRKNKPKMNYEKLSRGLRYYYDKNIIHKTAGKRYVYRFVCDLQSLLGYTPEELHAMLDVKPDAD
Briefly: EMSA; not stated in the material (as described previously, ref 25). Conditions: protein: recombinant; tags: C-terminal His6 removed by thrombin; label: 5' 32P on strand 1 (STK19-RVS); 5' biotin on strand 2 (STK19-FWD); blunt. For orientation: In EMSA bound probe runs differently from free probe, usually more slowly.

B1: STK19 D89 oligonucleotide (STK19-RVS/STK19-FWD) (dsDNA)
DNA 1: CCTGAAAATAGGGTCTTCCGGCGCAGAGCA
DNA 2: TGCTCTGCGCCGGAAGACCCTATTTTCAGG
In the case of B1, the binding result is “binds”.

The values are drawn from paper PMC10175485, “Detecting recurrent passenger mutations in melanoma by targeted UV damage sequencing”.
